Test results taken from patent publication US20230265151A1, “GIP/GLP1 CO-AGONIST COMPOUNDS” (priority 2020, published 2023).
Changes are numbered by the printed parent chain.

Legend:
Experiment in all cases: cell-based or functional assay
human GLP-1 receptor = human GLP-1 receptor (human, UniProt P43220 24-463)
human glucagon receptor = human glucagon receptor (human, UniProt P47871 26-477)
human GIP receptor = molecular target: T1, human GIP receptor (human, UniProt P48546 22-466)
T1 sequence (looked up): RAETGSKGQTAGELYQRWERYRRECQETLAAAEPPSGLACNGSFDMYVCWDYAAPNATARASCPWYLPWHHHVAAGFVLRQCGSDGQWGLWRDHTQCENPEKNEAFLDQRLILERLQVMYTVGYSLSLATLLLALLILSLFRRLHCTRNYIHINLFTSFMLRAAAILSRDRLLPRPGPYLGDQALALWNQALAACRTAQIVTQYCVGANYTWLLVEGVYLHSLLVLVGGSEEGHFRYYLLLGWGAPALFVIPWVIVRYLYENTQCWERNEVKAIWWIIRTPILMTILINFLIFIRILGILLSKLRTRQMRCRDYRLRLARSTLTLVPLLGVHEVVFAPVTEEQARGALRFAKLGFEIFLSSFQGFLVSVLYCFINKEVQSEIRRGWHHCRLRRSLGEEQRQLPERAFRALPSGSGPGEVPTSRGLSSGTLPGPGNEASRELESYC

B1: Y-Aib-EGT-αMeF(2F)-TSD-4Pal-SI-αMeL-LD-Orn-K((2-[2-(2-Amino-ethoxy)-ethoxy]-acetyl)2-(γ-Glu)-CO-(CH2)12-CO2H)AQ-Aib-EFI-(D-Glu)-αMeY-LI-Orn-GGK((2-[2-(2-Amino-e … (peptide)
peptide: YXEGTXTSDXSIXLDXKAQXEFIXXLIXGGKSSGAPPPS
modifications: Aib2, αMeF(2F)6, 4Pal10, αMeL13, Orn16, Aib20, D-Glu24, αMeY25, Orn28; acylated K17, K31 (groups as in name); C-terminal amide
cAMP EC50 (1.0% HSA) (human GLP-1 receptor): 17.3 nM
cAMP Emax (1.0% HSA) (human GLP-1 receptor): 112%
cAMP EC50 (1.0% HSA) (human glucagon receptor): > 9950 nM
cAMP EC50 (1.0% HSA) (human GIP receptor): 0.306 nM
cAMP Emax (1.0% HSA) (human GIP receptor): 87.5%

B2: Y-Aib-EGT-αMeF(2F)-TSD-4Pal-αMeS-I-αMeL-LD-Orn-K((2-[2-(2-Amino-ethoxy)-ethoxy]-acetyl)2-(γ-Glu)-CO-(CH2)12-CO2H)AQ-Aib-EFI-(D-Glu)-αMeY-LIEGGK((2-[2-(2-Amino-e … (peptide)
peptide: B1 peptide with S11X, X28E
modifications: Aib2, αMeF(2F)6, 4Pal10, αMeS11, αMeL13, Orn16, Aib20, D-Glu24, αMeY25; acylated K17, K31 (groups as in name); C-terminal amide
cAMP EC50 (1.0% HSA) (human GLP-1 receptor): 40.3 nM
cAMP Emax (1.0% HSA) (human GLP-1 receptor): 102%
cAMP EC50 (1.0% HSA) (human glucagon receptor): > 9950 nM
cAMP EC50 (1.0% HSA) (human GIP receptor): 4.38 nM
cAMP Emax (1.0% HSA) (human GIP receptor): 95.6%

B3: Y-Aib-EGT-αMeF(2F)-TSD-4Pal-Ac5c-I-αMeL-LD-Orn-K((2-[2-(2-Amino-ethoxy)-ethoxy]-acetyl)2-(γ-Glu)-CO-(CH2)12-CO2H)AQ-Aib-EFI-(D-Glu)-αMeY-LIEGGK((2-[2-(2-Amino-e … (peptide)
peptide: B1 peptide with S11X, X28E
modifications: Aib2, αMeF(2F)6, 4Pal10, Ac5c11, αMeL13, Orn16, Aib20, D-Glu24, αMeY25; acylated K17, K31 (groups as in name); C-terminal amide
cAMP EC50 (1.0% HSA) (human GLP-1 receptor): 94.2 nM
cAMP Emax (1.0% HSA) (human GLP-1 receptor): 99%
cAMP EC50 (1.0% HSA) (human glucagon receptor): > 9950 nM
cAMP EC50 (1.0% HSA) (human GIP receptor): 2.16 nM
cAMP Emax (1.0% HSA) (human GIP receptor): 64.5%

B4: Y-Aib-EGT-αMeF(2F)-TSD-4Pal-Tle-I-αMeL-LD-Orn-K((2-[2-(2-Amino-ethoxy)-ethoxy]-acetyl)2-(γ-Glu)-CO-(CH2)12-CO2H)AQ-Aib-EFI-(D-Glu)-αMeY-LIEGGK((2-[2-(2-Amino-et … (peptide)
peptide: B1 peptide with S11X, X28E
modifications: Aib2, αMeF(2F)6, 4Pal10, Tle11, αMeL13, Orn16, Aib20, D-Glu24, αMeY25; acylated K17, K31 (groups as in name); C-terminal amide
cAMP EC50 (1.0% HSA) (human GLP-1 receptor): 62.2 nM
cAMP Emax (1.0% HSA) (human GLP-1 receptor): 109%
cAMP EC50 (1.0% HSA) (human glucagon receptor): > 9950 nM
cAMP EC50 (1.0% HSA) (human GIP receptor): 6.09 nM
cAMP Emax (1.0% HSA) (human GIP receptor): 75.3%

B5: Y-Aib-EGT-αMeF(2F)-TSD-4Pal-SI-αMeL-LD-Orn-K((2-[2-(2-Amino-ethoxy)-ethoxy]-acetyl)2-(γ-Glu)-CO-(CH2)i2-CO2H)AQ-Aib-4Pal-FI-(D-Glu)-αMeY-LIEGGK((2-[2-(2-Amino-e … (peptide)
peptide: B1 peptide with E21X, X28E
modifications: Aib2, αMeF(2F)6, 4Pal10, αMeL13, Orn16, Aib20, 4Pal21, D-Glu24, αMeY25; acylated K17, K31 (groups as in name); C-terminal amide
cAMP EC50 (1.0% HSA) (human GLP-1 receptor): 36 nM
cAMP EC50 (1.0% HSA) (human glucagon receptor): > 9950 nM
cAMP EC50 (1.0% HSA) (human GIP receptor): 0.718 nM
cAMP Emax (1.0% HSA) (human GIP receptor): 89.6%

B6: Y-Aib-EGT-αMeF(2F)-TSD-4Pal-αMeS-I-αMeL-LD-Orn-IAQ-Aib-K((2-[2-(2-Amino-ethoxy)-ethoxy]-acetyl)2-(γ-Glu)-CO-(CH2)12-CO2H)FIK((2-[2-(2-Amino-ethoxy)-ethoxy]-acet … (peptide)
peptide: YXEGTXTSDXXIXLDXIAQXKFIKXLIEGGPSSGAPPPS
modifications: Aib2, αMeF(2F)6, 4Pal10, αMeS11, αMeL13, Orn16, Aib20, αMeY25; acylated K21, K24 (groups as in name); C-terminal amide
cAMP EC50 (1.0% HSA) (human GLP-1 receptor): 14.8 nM
cAMP Emax (1.0% HSA) (human GLP-1 receptor): 107%
cAMP EC50 (1.0% HSA) (human glucagon receptor): > 9950 nM
cAMP EC50 (1.0% HSA) (human GIP receptor): 0.925 nM
cAMP Emax (1.0% HSA) (human GIP receptor): 91.3%

B7: Y-Aib-EGT-αMeF(2F)-TSD-4Pal-αMeS-I-αMeL-LD-Orn-IAQ-Aib-K((2-[2-(2-Amino-ethoxy)-ethoxy]-acetyl)2-(γ-Glu)-CO-(CH2)12-CO2H)FI-(D-Glu)-αMeY-LIK((2-[2-(2-Amino-etho … (peptide)
peptide: B6 peptide with K24X, E28K
modifications: Aib2, αMeF(2F)6, 4Pal10, αMeS11, αMeL13, Orn16, Aib20, D-Glu24, αMeY25; acylated K21, K28 (groups as in name); C-terminal amide
cAMP EC50 (1.0% HSA) (human GLP-1 receptor): 87.8 nM
cAMP Emax (1.0% HSA) (human GLP-1 receptor): 118%
cAMP EC50 (1.0% HSA) (human glucagon receptor): > 9950 nM
cAMP EC50 (1.0% HSA) (human GIP receptor): 7.84 nM
cAMP Emax (1.0% HSA) (human GIP receptor): 62.7%

B8: Y-Aib-EGT-αMeF(2F)-TSD-4Pal-αMeS-I-αMeL-LD-Orn-IAQ-Aib-EFIK((2-[2-(2-Amino-ethoxy)-ethoxy]-acetyl)2-(γ-Glu)-CO-(CH2)12-CO2H)-αMeY-LIK((2-[2-(2-Amino-ethoxy)-eth … (peptide)
peptide: B6 peptide with K21E, E28K
modifications: Aib2, αMeF(2F)6, 4Pal10, αMeS11, αMeL13, Orn16, Aib20, αMeY25; acylated K24, K28 (groups as in name); C-terminal amide
cAMP EC50 (1.0% HSA) (human GLP-1 receptor): 32.3 nM
cAMP Emax (1.0% HSA) (human GLP-1 receptor): 117%
cAMP EC50 (1.0% HSA) (human glucagon receptor): > 9950 nM
cAMP EC50 (1.0% HSA) (human GIP receptor): 5.31 nM
cAMP Emax (1.0% HSA) (human GIP receptor): 63.4%
